According to the supplement of paper PMC9233669:
This sample holds only a part of the variants without activity.

Legend:
[1] = tested on: biotinyl-Phe-oxazolone; assay: self-aminoacylation, catalytic enhancement (BFO) (fold over background); higher = more active; k-Seq, kA / k0A0; sequences stand for … in GGGAAUGGAUCCACAUCUACGAAUUC…UUCACUGCAGACUUGACGAAGCUG
In short: (§1)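 Mutagenized RNA pools with a 21-nt variable region (0.43 μM) reacted with each biotinyl-aminoacyl-oxazolone at 2–1250 μM. Reactions ran in 50 μL HEPES/NaCl/KCl/MgCl2/CaCl2 buffer with 5% acetonitrile, pH 6.9–7.0, for 90 minutes at room temperature. Streptavidin-captured RNA was quantified by triplicate qPCR and Illumina sequencing, and per-sequence fraction reacted was fit to a pseudo-first-order model with 1000 bootstraps. Catalytic enhancement is median kA divided by the uncatalyzed rate, the low-activity peak of a bimodal Gaussian fit.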

[2] = tested on: biotinyl-Ile-oxazolone; assay: self-aminoacylation, catalytic enhancement (BIO) (fold over background); higher = more active; k-Seq, kA / k0A0; sequences stand for … in GGGAAUGGAUCCACAUCUACGAAUUC…UUCACUGCAGACUUGACGAAGCUG
In short: as §1

[3] = tested on: biotinyl-Met-oxazolone; assay: self-aminoacylation, catalytic enhancement (BMO) (fold over background); higher = more active; k-Seq, kA / k0A0; sequences stand for … in GGGAAUGGAUCCACAUCUACGAAUUC…UUCACUGCAGACUUGACGAAGCUG
In short: as §1

[4] = tested on: biotinyl-Val-oxazolone; assay: self-aminoacylation, catalytic enhancement (BVO) (fold over background); higher = more active; k-Seq, kA / k0A0; sequences stand for … in GGGAAUGGAUCCACAUCUACGAAUUC…UUCACUGCAGACUUGACGAAGCUG
In short: as §1

[5] = tested on: biotinyl-Leu-oxazolone; assay: self-aminoacylation, catalytic enhancement (BLO) (fold over background); higher = more active; k-Seq, kA / k0A0; sequences stand for … in GGGAAUGGAUCCACAUCUACGAAUUC…UUCACUGCAGACUUGACGAAGCUG
In short: as §1

[6] = tested on: biotinyl-Trp-oxazolone; assay: self-aminoacylation, catalytic enhancement (BWO) (fold over background); higher = more active; k-Seq, kA / k0A0; sequences stand for … in GGGAAUGGAUCCACAUCUACGAAUUC…UUCACUGCAGACUUGACGAAGCUG
In short: as §1

Sequence | self-aminoacylation [1] | self-aminoacylation [2] | self-aminoacylation [3] | self-aminoacylation [4] | self-aminoacylation [5] | self-aminoacylation [6]
AUUCACCGAGGUCGUCGGGUG [Fam2.2 aminoacylation ribozyme variant] | 11.1 | 2.55 | 3.16 | 2.55 | 3.03 | 3
AUUAACCGAGGUCAUCGGGUG [Fam2.2 aminoacylation ribozyme variant] | 48.9 | 4.6 | 7.9 | 5.32 | 7.86 | 7.45
AGUACCCUGGUCCUCGAGUGA [Fam2.1 aminoacylation ribozyme variant] | 18.1 | 2.7 | 4.14 | 2.81 | 5.58 | 4.66
GUUACCCUGGUCAUCGCGUGA [Fam2.1 aminoacylation ribozyme variant] | 212 | 11.2 | 25.3 | 14.8 | 25.2 | 26.8
AAGUUCGCUAAUUGUCGCAAG [Fam3.1 aminoacylation ribozyme variant] | 3.26 | 1.68 | 1.3 | 1.7 | 2.06 | 1.51
AUUGACCUACGUCAUCGGGUG [Fam2.2 aminoacylation ribozyme variant] | 40.6 | 3.13 | 4.72 | 3.81 | 6.43 | 5.9
AUUCACCUAACUCAUCGGGUG [Fam2.2 aminoacylation ribozyme variant] | 22.8 | 2.36 | 4.05 | 2.41 | 4.47 | 3.17
AUUCACCUAGGUCACCGUGUG [Fam2.2 aminoacylation ribozyme variant] | 4.55 | 1.13 | 1.33 | 1.33 | 1.48 | 1.24
AUUAACCUGGUCAUCGCGUGA [Fam2.1 aminoacylation ribozyme variant] | 126 | 8.07 | 17.2 | 7.74 | 19.1 | 21.5
AUUACUGUGGUCAUCGAGUGA [Fam2.1 aminoacylation ribozyme variant] | 14.1 | 2.65 | 4.65 | 2.56 | 4.25 | 5.16
AUUCACCUAGGUCAUCGGCUA [Fam2.2 aminoacylation ribozyme variant] | 11.2 | 2.67 | 2.57 | 2.62 | 2.98 | 2.62
CCACACUUCAAGAAACCGGUC [Fam1B.1 aminoacylation ribozyme variant] | 0.875 | 0.998 | 0.798 | 0.824 | 1.17 | 0.931
CCACAUUUCAAGCGAUCGGUC [Fam1B.1 aminoacylation ribozyme variant] | 1.52 | 1.54 | 1.31 | 1.64 | 1.62 | 1.16
CCACACUUCAAGAAAGCGGUC [Fam1B.1 aminoacylation ribozyme variant] | 0.498 | 0.839 | 0.66 | 0.716 | 0.784 | 0.407
AUUCACGUAGGUCUUCGGGUG [Fam2.2 aminoacylation ribozyme variant] | 40.1 | 3.86 | 4.21 | 5.24 | 4.82 | 4.88
AUACUGCAAACAAUCGGUCUG [Fam1A.1 aminoacylation ribozyme variant] | 2.49 | 1.08 | 1.09 | 1.05 | 1.18 | 1.44
CUACUUCAGACAAUCGGUCUU [Fam1A.1 aminoacylation ribozyme variant] | 1.11 | 0.967 | 0.904 | 0.961 | 0.919 | 0.663
AUGACCAUGGUCAUCGAGUGA [Fam2.1 aminoacylation ribozyme variant] | 22.1 | 4.29 | 7.94 | 4.28 | 8.09 | 9.59
AUUACCCUGGUGAUGGAGUGA [Fam2.1 aminoacylation ribozyme variant] | 31.1 | 2.62 | 5.67 | 2.55 | 5.75 | 5.69
CUUCGCCUAGGUCAUCGGGUG [Fam2.2 aminoacylation ribozyme variant] | 37.4 | 3.75 | 3.41 | 4.54 | 4.47 | 5.8
ACCACCCUGGUCAUCGAGUGA [Fam2.1 aminoacylation ribozyme variant] | 27.9 | 4.75 | 10.1 | 5.17 | 9.22 | 9.59
ACUACCCUGGGCAUCGAGUGA [Fam2.1 aminoacylation ribozyme variant] | 41.4 | 3.65 | 7.11 | 4.49 | 7.95 | 6.86
AUUAACCUAAGUCAUCGGGUG [Fam2.2 aminoacylation ribozyme variant] | 63.5 | 4.9 | 8.41 | 4.74 | 12.1 | 7.95
CCACCCUGCAAGCAAUCGGUC [Fam1B.1 aminoacylation ribozyme variant] | 1.28 | 1.42 | 1.3 | 1.73 | 1.17 | 1.23
AUUCAGCUAGGUUAUCGGGUG [Fam2.2 aminoacylation ribozyme variant] | 60.4 | 5.01 | 7.59 | 5.16 | 9.36 | 8.86
CCACAUCAAACAAUCGGUCUG [Fam1A.1 aminoacylation ribozyme variant] | 1.46 | 1.13 | 1.04 | 1.07 | 1.05 | 1.98

Sequence | self-aminoacylation [1] | self-aminoacylation [2] | self-aminoacylation [3] | self-aminoacylation [4] | self-aminoacylation [5] | self-aminoacylation [6]
AUUCCCCUAGGUCAUCGAGUG [Fam2.2 aminoacylation ribozyme variant] | 66.1 | 7.79 | 11 | 7.52 | 15 | 12.6
GUUACCCUGGUCAUGGAGUGA [Fam2.1 aminoacylation ribozyme variant] | 36.2 | 3.51 | 4.85 | 3.36 | 5.89 | 7.15
CCACUCUUCAAGCAAUGGGUC [Fam1B.1 aminoacylation ribozyme variant] | 0.667 | 0.877 | 0.953 | 0.859 | 0.911 | 0.647
CUACUUCAAACUAGCGGUCUG [Fam1A.1 aminoacylation ribozyme variant] | 1.25 | 0.932 | 0.547 | 0.803 | 0.79 | 0.732
AUUUCCCUGUUCAUCGAGUGA [Fam2.1 aminoacylation ribozyme variant] | 11.4 | 2.79 | 5.22 | 3.09 | 5.04 | 5.62
AAGUUUGAUAGUAGUCGCAAG [Fam3.1 aminoacylation ribozyme variant] | 0.93 | 0.973 | 1.17 | 0.979 | 0.977 | 1.21
AUUGCCCUGUUCAUCGAGUGA [Fam2.1 aminoacylation ribozyme variant] | 25.2 | 3 | 5.44 | 4.12 | 5.81 | 7.43
AUUCACCUAGGUCAUCGGGAA [Fam2.2 aminoacylation ribozyme variant] | 26 | 4.54 | 5.51 | 4.14 | 9.17 | 6.07
CCACACUUAAACCAAUCGGUC [Fam1B.1 aminoacylation ribozyme variant] | 1.19 | 0.938 | 0.615 | 0.756 | 0.572 | 0.722
CUACUUCAGACAAUCCGUCUG [Fam1A.1 aminoacylation ribozyme variant] | 1.86 | 0.902 | 0.675 | 0.826 | 0.963 | 1.23
AAGUCUGCUAAUAGUCGAAAG [Fam3.1 aminoacylation ribozyme variant] | 16.8 | 1.1 | 1.84 | 1.04 | 1.52 | 6.05
CCGCACUUCACGCAAUCGGUC [Fam1B.1 aminoacylation ribozyme variant] | 1.66 | 1.36 | 1.54 | 2.1 | 2.34 | 1.85
AAGGUUGCUAAUAGUCGCAAA [Fam3.1 aminoacylation ribozyme variant] | 1.51 | 1.86 | 1.28 | 1.42 | 1.63 | 1.4
CAACUUCAAACAAACGGUCUG [Fam1A.1 aminoacylation ribozyme variant] | 0.948 | 1.07 | 0.945 | 0.946 | 0.995 | 1.04
CUACUGCAAAAAAUCGGUCUG [Fam1A.1 aminoacylation ribozyme variant] | 0.868 | 0.788 | 0.686 | 0.703 | 0.638 | 0.892
AAUACCCUUGUCAUCGAGUGA [Fam2.1 aminoacylation ribozyme variant] | 5.23 | 2.42 | 4.58 | 2.43 | 4.72 | 5.93
CUUACCCUCGUCAUCGAGUGA [Fam2.1 aminoacylation ribozyme variant] | 3.66 | 1.82 | 2.42 | 1.92 | 2.47 | 3.21
ACUCACCUAGUUCAUCGGGUG [Fam2.2 aminoacylation ribozyme variant] | 19.7 | 2.87 | 3.46 | 3.36 | 3.86 | 3.85
AUUACCCUGGUUAUCGCGUGA [Fam2.1 aminoacylation ribozyme variant] | 93.6 | 4.99 | 12.4 | 6.04 | 11.6 | 13.5
AAGUUAGCUAACAGUCGCAAG [Fam3.1 aminoacylation ribozyme variant] | 2.2 | 1.83 | 2.31 | 1.68 | 1.66 | 1.56
CUACUUCAAACAAGCCGUCUG [Fam1A.1 aminoacylation ribozyme variant] | 0.59 | 0.78 | 0.925 | 0.746 | 0.872 | 0.926
AAUCACCUAGGUCAUCGCGUG [Fam2.2 aminoacylation ribozyme variant] | 70.6 | 6.41 | 11.3 | 7.32 | 12.1 | 10.4
AUUACCCUGGUCAUGGAGUCA [Fam2.1 aminoacylation ribozyme variant] | 0.746 | 0.907 | 0.798 | 1.01 | 0.838 | 0.594
ACUACCCUGGUCAUCGAGUAA [Fam2.1 aminoacylation ribozyme variant] | 20.1 | 3.33 | 9.42 | 3.99 | 8.99 | 8
CCACCCUUCAAGAAAUCGGUC [Fam1B.1 aminoacylation ribozyme variant] | 5.63 | 1.24 | 1.16 | 1.19 | 1.26 | 6.09
